Experimental data published in FireProtDB (doi:10.1021/bi972642d).

Settings: Bos taurus; pH 7; 25 °C; Urea; CD; Potassium phosphate 10 mM; whole UniProt chain shown

B1: Protein S100-G wild type, P02633 (protein)
chain: MSAKKSPEELKGIFEKYAAKEGDPNQLSKEELKLLLQTEFPSLLKGPSTLDELFEELDKNGDGEVSFEEFQVLVKKISQ
denaturant m value: 1.17 kcal/mol/M
denaturant midpoint (higher = more stable): 5.6 M
unfolding free energy: 6.55 kcal/mol
